According to the nanobody polyreactivity screen of Harvey et al. (2022):

Experiment: yeast display, Sf9 membrane polyspecificity reagent, FACS + sequencing; frameworks hold sequencing errors
Method in brief: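 After 36–48 hours of galactose induction, yeast (Saccharomyces cerevisiae BJ5465) displaying a synthetic nanobody library were stained at 4 °C for 1 hour with 10% biotinylated, detergent-solubilized Sf9 membrane reagent. Streptavidin microbeads enriched the stained cells before FACS sorting into low and high (top ~1%) gates on anti-HA and streptavidin fluorescence. Each clone's polyreactivity label reflects its gate of origin.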

Sequence | polyreactivity (PSR sort gate)
QVQLQESGGGLVQAGGSLRLSCAASGYISLAQTIGWYRQAPGTEREFVASIALGSSTYYTDSVKGSFTISRDNAKTTVYLQMNSLKPEDTAVYYCAARVGASYAHDYWGQGTQVTVSS | low polyreactivity
QVQLVESGGGLVQAGGSLRLSCADSGRIFYRYAMGWYRQAPGKERELVAAITNSGGRTYYADSVKGRFTISRDNAKNTVYLQMNSVKPEDSAVYYCNAVKTSEYDYWGQGTQVTVSS | high polyreactivity
QVQLVESGGGLVQAGGSLRLSCAASGYTFPLYAMGWYIQAPGKETELVADINIGGASTYYADSVKGRFTISRDNAKNTVYLQMNSLKPEDTAVYYCAKEYYDGYFPTLDYDYWGQGTQVTVSS | low polyreactivity
QVQLVESGGGLVQAGGSLRLSCAASGLTFKYYAMGWYRQAPGKERELVAAITYSVGTTYYADSVKGRFTISRDNAKNTVYLQMNSLKPEDTAVYYCAADFAPVGLPSPYAVSEGEDDYWGQGTQVTVSS | low polyreactivity
QVQLVESGGGLVQAGGSLRLSCAASGSIFVYYVMGWYRQAPGKDRELVAAINSDGDGTYYADSVKGRFTISRDNAKNTVYLQMNSLKPEDTAVYYCNALNPKSYDYWGQGTQVTVSS | low polyreactivity
QVQLVESGGGLFQAGGSLRLSCAASGIIFPRYMGWYRQAPGKERELVAAIRWSSDDTNYADSVKGRFTISRDNAKNTVYLQMNSLKPEDTAVYYCAADSYYDRTIQFEFSARTYEYWGQGTQVTVSS | low polyreactivity
QVHLVESGGGLVQAGGSLRLSCAASGSTFYANLMGWYRQAPGKESELVAAIDGSGGRTYYADSVKGRFTISRDNAKNTVYLQMNSLKPEDTAVYYCAKKRIVPVIQFGRDYNYWGQGTQVTVSS | high polyreactivity
QVQLVESGGGLVQAGGSLRLSCAASGRTFFVNAMGWYRQAPGKERELVAAITWSGGSTYYADSVKGRFTISRDNAKNTVYLQMNSLKPEDTAVYYCAAEYYSYSYSYYYYGYEYWGQGTQVTVSS | high polyreactivity
QVQLVESGGGLVQAGGSLRLSCAASGSTFYTNAMGWYRQAPGKERELVAAISASVGSTYYADSVKGRFTISRDNAKNTVYLQMNSLKPEDTAVYYCAADVWASRRYDYWGQGTQVTVSS | low polyreactivity
QVQLVESGGGLVQAGGSLRLSCAASGFTFYIYAMGWYRQAPGKERELVARISSGGRTYYADSVKGRFTISRDNAKNTVYLQMNSLKPEDTAVFDCHFWYGSWGQGTQVTVSS | low polyreactivity
QVQVVQSGGGLVQAGGSLSLSCAASGNTFYGYAMGWYRQAPGNESEFVASITLSGDSTYYADSVKGRFTISRDNAQNTVYLQMNSLKPEDTAVYYCAGVYTYPLGYYHYTYDYWGQGTQVTVSS | low polyreactivity
QVQLVESVGGLVQAGGSLRLSCAASGSISIRNAMGWYRQAPGKERELVAAITYSGGSTYYADSVKGRFTISRDNAKNTVYLQMNSLKPEDTAVYYCNKDTYLATYLYDYWGQGTQVTVSS | low polyreactivity
QVQLVESGGGLVQAGGSLRLSCAASGSTFPPNAMGWSRQAPGKERELVAAISERGGSTYYADSVKGRFTISRDNAKNTVYLQMNSLKPEDTAVYYCAVDYYYLMYWGQGTQVTVSS | low polyreactivity
QVQLVESGGGLVQAGGSLRLSCAASGSTFYNYAMGWYRQAPGKERELVASITWNGGSTYYADSVKGRFTISRDNAKNTVYLQMNSLKPEDTAVYYCAADWTWTYPYDYWGQGTQVTVSS | low polyreactivity
QVQLVESGGGLVQAGRSLRLSCAASGRIFRGYAMGWYRPAPGIERELVAAISWSGGSTNYADSVKGRFTISRDNAKNSVYLQMNSLKPEDTEVYYCAARAYRVANAGYTYWGQGTQLTVSS | high polyreactivity
QVQLVESGGGLVQAGGSLRISCAASGFIFRYNAMGWYRQAPGKERELVAAINSGDSTNYADSVKGRFTISRDNAKNTVYLQMNSLKPEDTAVYYYWGQGTQVTVSS | low polyreactivity
QVQLVESGGGLVQAGGSLRVSCAASGFIIEVNSMAWYRQAPGKERELVARIDWSGGSTYYADSVKGRFTISRDNAKNTVFLQMNSLIPEDTAVYYCAVVASRSHTETPEYDYWGQGTQVTVSS | low polyreactivity
QVQLVESGGGLVQAGGSLRLSCSASGRTFDVYAMGWYRQAPGKERELVATIRSDGSTTYADSVKGRFTISRDNAKNTVYLQMNSLKPEDTAVYFCAADFRSGFSSSTTPVQSDWGQGTQVTVSS | low polyreactivity
QVQLVESGGGLVQAGGRLRLSCAASGFIVDDNTIGWYRQAPGKEREVFAAISYSAGSTYYADSVKGRFTISRDNAKNTVYFQLNSLKPEDTAVYYCAAQHYWVTCYLSSYDYWGQGTQVSVSS | low polyreactivity
QVQLVESRGGVVQAGGSLRLSSDDSGFTFYYYAMGWYRQAPGKERQLVAPITKSGGSTYYADSVKWRFTISRDNSKNSLYVKFNRLKPEDTAVYYCNKVTYSSDQYFGGDGYFWGQGTQVTVTS | high polyreactivity
QVQLVESAGGLVQAGGSLRLSCAASGSIFNVYDMGWYRQAPGKERELVAAITWSGGRTYYADSVKGRFTISRDNAKNTVYLQMNSLKPEDTAVSSCSARRWWVKSWRRFDYWGQGTQVTVSS | high polyreactivity
QVQLVESGGGLVQAGGSLRLSCAASGRTFGKYTMGWYRQAPGKERELVAAINRRGGSTYYADSVKGRFTISRDNAKNTVYLQMNSLKPEDTAVYYCAKDGYSIDRYYWGQGTQVTVSS | high polyreactivity

Sequence | polyreactivity (PSR sort gate)
QVQLVESGGGLVQAGGSLRLSCAASGSIFSAYAMGWYRQAPRKEREFVAAITRRGGNTYYADSVKGRFTISRDNAKNTVYLQMNSLKPEDTAVYYCAAGFYYVYVWLGEYWGQGTQVTVSS | low polyreactivity
QVQLVESWGGLVQAGGRLRLSCAASGRTFPGYAMGWYRPAPRKERELVAGISYRGGSTYYADSVKGRFTISRDNAKYTDYLQMNSLNPEDTAVYYCARDYSRHKGDYWGQGTQVTVSS | low polyreactivity
QVQLVESGGGLVQAGGSLRLSCAASGRIFITNAMGWYRPAPGKERELVAVISYIGGRTYYADSVKGRFTISRDNAKNTVYLQMNSLKPEDTAVYYCAARRSRPTYFSTGVNYWGQGTQVTVSS | high polyreactivity
QVQLVESGGGLVQAGGSLRLSCAASGYTFTGNAMGWYRQAPGKERELVARITSVGRTYYADSVKGRFTISRDNAKNTVYLQMNSLKPEDTAVYYCAAQPYRYRYWPRVGGYDYWGQGTQVTVTS | high polyreactivity
QVQLVESGGGLVQAGGSLRLSCAASGRIFSIYGMGWSRQAPGKERELVAVISGSVGITYYADSVKVRFTISRDNAKNTVYLQMISLKPEDTAVYYCNAKVRRRKYDYWGQGTQVTVSS | high polyreactivity
QVQLVESGGGLVQAGGSLRLSCAASGSIFGLYAMGWYRQAPGKEREVFADITIGGSTYYADSVKGRFTISRDNAKNTVYLQMNSLKPEDTAVYYCASRPGSWYPSVPSYNYWGQGTQVTVSS | low polyreactivity
QVQHVESGGGLVQAGGSHRLSCAASGSTFTYYAMGWYRQAPGKERELVAAISRGGSTYYADSVKGRFTISRDNAKNTVYLKKYSLKPEDTAVYYCAAERGYKKWSRGYWGQGTLVTVSS | high polyreactivity
QVQLVESGGGLVQAGGSLRLSCAASGINLNNYPLGSYRQAPGKDRELVAAITSSGTRTYYADSVKGRFTISRDNAKINVYLQMNSLKPEDTAVYYCAAQPVYDLWGQGTQVTVSS | high polyreactivity
QVQLVESGGGLVQAGGSLRLSSAASGSILTINAMGWYRLAPGKERELVARITISSGSTYYADSVKGRFTISRDNAKNTVYLQLNSLKPEDTAVYYCAKLRYPYLFWDDSEYWGQGTQVTVSS | low polyreactivity
QVHLVDSGGGLVQAGGSLRLSCAASGFTFWRYTMGWYRQAPGKERELVAAISGGTTTYYADSVKGRFTISRDNAKNTVYLQMNSLKPEDTAVYYCAAYSQRARTYDYWGQGTQVTVSS | high polyreactivity
QDQLVESGGGLVHAGGSLRLSCAASVSTFTRYDMGRYRQAPGKERELVDAISWSGGRTHYADSVKGRFTISRENAKNTVYLQMNSLKPEDTAVYYCNTLYDYWYDYWGQGSQVTVSS | low polyreactivity
QGQLVESGGGLVQAGGSLRLSCAASGFTLLPYAMGWYRQAPGKERELVAAISRRGVSTYYADSVKGRFTISRDNAKNTVYLQMISLKPEDTAVYYCAAKYRKWPMDYWGQGTQVTVSS | high polyreactivity
QVQLVESGGGLVQAGGSLRLSCAASGRTFVVYTMGWYRQAPGKERELVAAISWRGGTTYYADSVKGRFTISRDNAKNTVYLQMNSLKPEDTAVYYCAARVVYYYRERYYWGQGTQVTVSS | high polyreactivity
QVQLVESGGGLVQSGGSLRLSCAASGITFARYTMGWYRQAPGKVRELVAAISYAGNTYYADSVKGRFTISRDNAKNTVYLQMNSLKPEDTAVYYCAREYTYYPRWVGYDAYGEDYWGQGTQVTVSS | low polyreactivity
QVQLVESGGGLVQAGGSLRLSCAASGFTFAAYAMGWSRQAPGKERELVAAISRSGGSTYYADSVKGRFTISRDNAKNTVYLQMNSLKPEDTAVYYCAAYGWPKYNYWGQGTQVTVSS | high polyreactivity
QVQLVDSGGGLVQAGGSLRISCAATGSIFGPNAMGWNRQPPGKERELVAAISRRGGTTYYADSVKGRFTISRDNSKNTFYLQMNSLKPEDTAVYYCATVLYKAYNDYGYWGQGTQVTVSS | high polyreactivity
QVQLVESGGGLVQAGGSLRLSCAASGIIFFRNPMGWYRQAPGKERELVAAISSGGSTYYADSVKGRFTISRDNAKNTVYLQMNSLKPEDTAVYYCNQVGPLYYASYDYWGQGTQGTVSS | low polyreactivity
QVQLVESGGGLVQAGGSLRLSCAASGSIFVPYAMGWYRQAPGKERELVATITISGGSTYYADSVKGRFTISRDNAKNTVYLQMNSLKPEDTAVYYCAAETTASYYKRTDDYDYWGQGTQVTVSS | low polyreactivity
QVQLVESGGGLVQAGGSLRLSCAGSGSNFDVYTMGWYRKAPGKERELVAAINTGGGSTYYADSVKGRFTISRDNAMNTVYLQMNSLKPEDTAVYYCAASVYHYGPLYYWRQGTQVTVSS | low polyreactivity
QVQLVESGGGIVQAGGSLRLSCAASGSIFRRNAMGWYRQSPGKEMEMVASISRGGSTYYADSVKGRFTISRDNAKNTVYLQMNSLKPEDTSVYYCNVVPRWLSWVPTTRRIGDDDYWGQGTQVTVSS | high polyreactivity
QVQLVESGGGLVQAGGSLRISCAASGSTLYRNAMGWYRQAPGKEMELVAAISSSGGTTFYADSVKGRFTISRDNAKNTVYLQMNSLKPEDTAVYYCNRNARKLRTVHSSVFGLDYWGQGTQVTVSS | low polyreactivity
